Measurements: patent US20200317768A1 (published 2020)

T1: cynomolgus monkey FcγRIIa2 extracellular domain, His-tagged (cynomolgus monkey)
T1 construct: also called cyno FcγRIIa2; FcgRIIa2; not shown: His-tag added to the C-terminus
T1 chain: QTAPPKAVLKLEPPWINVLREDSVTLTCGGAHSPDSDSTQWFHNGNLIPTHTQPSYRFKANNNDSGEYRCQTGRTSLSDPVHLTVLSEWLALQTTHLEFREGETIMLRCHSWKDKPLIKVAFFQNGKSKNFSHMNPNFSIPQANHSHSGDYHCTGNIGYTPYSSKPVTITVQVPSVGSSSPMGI

T2: human FcγRIIb extracellular domain, His-tagged (human, UniProt P31994 43-217)
T2 construct: also called FcgRIIb (human); not shown: His-tag added to the C-terminus
T2 sequence: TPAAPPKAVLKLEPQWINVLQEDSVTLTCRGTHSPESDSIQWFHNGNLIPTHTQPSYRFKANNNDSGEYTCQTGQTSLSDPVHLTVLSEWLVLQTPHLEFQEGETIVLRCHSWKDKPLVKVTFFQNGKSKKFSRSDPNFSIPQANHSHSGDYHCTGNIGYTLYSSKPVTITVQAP

T3: human FcγRIIaH extracellular domain, His-tagged (human, UniProt P12318 34-217)
T3 construct: also called human FcγRIIa (type H); FcgRIIaH; not shown: His-tag added to the C-terminus
T3 sequence: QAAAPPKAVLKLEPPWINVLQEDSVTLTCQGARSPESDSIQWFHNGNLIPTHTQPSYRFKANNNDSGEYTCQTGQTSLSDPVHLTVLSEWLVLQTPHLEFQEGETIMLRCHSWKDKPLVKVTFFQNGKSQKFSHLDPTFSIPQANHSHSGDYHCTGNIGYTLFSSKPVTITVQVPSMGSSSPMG

T4: cynomolgus monkey FcγRIIa3 extracellular domain, His-tagged (cynomolgus monkey)
T4 construct: also called cyno FcγRIIa3; FcgRIIa3; not shown: His-tag added to the C-terminus
T4 chain: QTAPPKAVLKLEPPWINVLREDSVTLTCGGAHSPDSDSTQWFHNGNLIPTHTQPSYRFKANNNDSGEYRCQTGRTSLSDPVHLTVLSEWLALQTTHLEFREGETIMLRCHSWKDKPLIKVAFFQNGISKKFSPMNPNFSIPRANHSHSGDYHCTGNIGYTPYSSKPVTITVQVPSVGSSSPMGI

T5: cynomolgus monkey FcγRIIb extracellular domain, His-tagged (cynomolgus monkey)
T5 construct: also called cyno FcγRIIb; cynoFcγRIIb; not shown: His-tag added to the C-terminus
T5 chain: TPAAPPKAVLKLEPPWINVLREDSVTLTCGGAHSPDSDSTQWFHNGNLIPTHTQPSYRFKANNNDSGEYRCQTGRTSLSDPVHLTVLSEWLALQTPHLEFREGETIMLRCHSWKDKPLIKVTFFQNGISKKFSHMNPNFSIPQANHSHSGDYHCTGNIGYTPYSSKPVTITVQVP

T6: cynomolgus monkey FcγRIIa1 extracellular domain, His-tagged (cynomolgus monkey)
T6 construct: also called cyno FcγRIIa1; FcgRIIa1; not shown: His-tag added to the C-terminus
T6 chain: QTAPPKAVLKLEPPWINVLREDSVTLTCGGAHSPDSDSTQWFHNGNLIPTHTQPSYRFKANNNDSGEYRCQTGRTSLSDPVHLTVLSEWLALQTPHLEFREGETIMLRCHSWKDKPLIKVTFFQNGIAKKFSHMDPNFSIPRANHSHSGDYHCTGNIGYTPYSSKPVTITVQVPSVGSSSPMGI

T7: human FcγRIIaR extracellular domain, His-tagged (human, UniProt P12318 34-217)
T7 construct: also called human FcγRIIa (type R); FcgRIIaR; not shown: His-tag added to the C-terminus
T7 chain: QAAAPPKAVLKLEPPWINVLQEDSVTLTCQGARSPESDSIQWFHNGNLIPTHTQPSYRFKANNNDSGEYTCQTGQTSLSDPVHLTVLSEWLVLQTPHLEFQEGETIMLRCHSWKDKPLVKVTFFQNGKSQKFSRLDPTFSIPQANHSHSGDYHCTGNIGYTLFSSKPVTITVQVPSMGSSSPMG


Assays:
Experiment in all cases: SPR (BIACORE), antibody captured on chip, FcγR as analyte, 25 C; KD of SG1 divided by KD of the variant
[1] = molecular target: T1, cynomolgus monkey FcγRIIa2 …
Procedure: (§1) After the measurement, the antibody captured on the chip was washed off by allowing reaction with 10 mM glycine-HCl, pH1.5 and 25 mM NaOH so that the chip was regenerated and used repeatedly. The sensorgrams obtained as measurement results were analyzed by the 1:1 Langmuir binding model using the BIACORE® Evaluation Software to calculate the binding rate constant ka (L/mol/s) and dissociation rate constant kd (l/s), and the dissociation constant KD (mol/L) was calculated from these values. […] Regarding such interactions, KD values were calculated using the following 1:1 binding model described in BIACORE® T100 Software Handbook BR1006-48 Edition AE.
(§2) The behavior of interacting molecules according to the 1:1 binding model on BIACORE® can be described by Equation 1: Req=C·R max/(KD+C)+RI, wherein, Req is a plot of steady-state binding levels to analyte concentration. C is concentration, RI is bulk refractive index contribution in the sample, and Rmax is analyte binding capacity of the surface. When this equation is rearranged, KD can be expressed as Equation 2: KD=C·Rmax/(Req−RI)−C. KD can be calculated by substituting the values of Rmax, RI, and C into Equation 1 or Equation 2. From the current measurement conditions, RI=0, C=2 μmol/L can be used.

[2] = molecular target: T2, human FcγRIIb extracellular domain, …
Procedure: as §1, §2

[3] = molecular target: T8, human FcγRIIIaV extracellular domain, His-tagged (human, UniProt P08637 17-208)
T8 construct: also called human FcγRIIIa (allotype V158); FcgRIIIaV; not shown: His-tag added to the C-terminus
Procedure: as §1, §2

[4] = molecular target: T3, human FcγRIIaH extracellular domain, …
Procedure: as §1, §2

[5] = molecular target: T4, cynomolgus monkey FcγRIIa3 …
Procedure: as §1, §2

[6] = molecular target: T5, cynomolgus monkey FcγRIIb extracellular …
Procedure: as §1, §2

[7] = molecular target: T9, cynomolgus monkey FcγRIIIaS extracellular domain, His-tagged (cynomolgus monkey, UniProt A3RFZ7 21-206 (rhesus entry))
T9 construct: also called cyno FcγRIIIaS; FcgRIIIaS; not shown: His-tag added to the C-terminus
Procedure: as §1, §2

[8] = molecular target: T6, cynomolgus monkey FcγRIIa1 …
Procedure: as §1, §2

[9] = molecular target: T7, human FcγRIIaR extracellular domain, …
Procedure: as §1, §2

T8 sequence (P08637 17-208 F176V): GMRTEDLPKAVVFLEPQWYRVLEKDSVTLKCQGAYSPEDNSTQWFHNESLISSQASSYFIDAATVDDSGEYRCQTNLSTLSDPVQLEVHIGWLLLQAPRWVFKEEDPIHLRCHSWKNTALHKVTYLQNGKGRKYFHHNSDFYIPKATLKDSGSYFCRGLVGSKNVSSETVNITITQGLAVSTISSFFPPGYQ
T9 sequence (A3RFZ7 21-206): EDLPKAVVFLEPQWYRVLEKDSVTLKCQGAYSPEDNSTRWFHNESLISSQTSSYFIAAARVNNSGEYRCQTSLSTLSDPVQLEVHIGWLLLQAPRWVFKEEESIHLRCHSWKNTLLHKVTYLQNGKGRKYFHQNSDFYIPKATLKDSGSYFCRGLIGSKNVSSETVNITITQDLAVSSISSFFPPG

| Binder | KD fold for cynoFcgRs (SG1 = 1) [1] [fold] | KD fold for humanFcgRs (SG1 = 1) [2] [fold] | KD fold for humanFcgRs (SG1 = 1) [3] [fold] | KD fold for humanFcgRs (SG1 = 1) [4] [fold] | KD fold for cynoFcgRs (SG1 = 1) [5] [fold] | KD fold for cynoFcgRs (SG1 = 1) [6] [fold] | KD fold for cynoFcgRs (SG1 = 1) [7] [fold] | KD fold for cynoFcgRs (SG1 = 1) [8] [fold] | KD fold for humanFcgRs (SG1 = 1) [9] [fold] |
| --- | --- | --- | --- | --- | --- | --- | --- | --- | --- |
| M103205H795-MY329 / M103202L889-SK1 (antibody, human IgG1, kappa, Fc variant made by introducing the substitutions into M103205H795-SG1; the list of substitutions runs over r151c2 and r152c2; Expressed with M103202L889-SK1 as light chain) heavy: QVTLKESGPVLVKPTETLTLTCTVSGIDLSHDDISWVRQAPGKGLEWVGIISYAGSTYYASWAKGRLTISKDTSKNQVVLTMTNMDPVDTATYYCARGVPAYSHGGDLWGQGTLVTVSSASTKGPSVFPLAPSSKSTSGGTAALGCLVKDYFPEPVTVSWNSGALTSGVHTFPAVLQSSGLYSLSSVVTVPSSSLGTQTYICNVNHKPSNTKVDKKVEPKSCDKTHTCPPCPAPELLDGPSVFLFPPKPKDTLMISRTPEVTCVVVDVSDEDPEVKFNWYVDGVEVHNAKTKPREELYNSTYRVVSVLTVLHQDWLNGKEYKCKVSNKALPKPIEKTISKAKGQPREPQVYTLPPSREEMTKNQVSLTCLVKGFYPSDIAVEWESNGQPENNYKTTPPVLDSDGSFFLYSKLTVDKSRWQQGNVFSCSVMHEALHNHYTQKSLSLSP light: DIVMTQSPATLSLSPGERATLSCTSSQSVYHANWLSWFQQKPGQPPKLLIYWASTLAYGVPSRFSGSGSGTDFTLTISSLQPEDAATYYCAGGYGGGRYAFGQGTKVEIKRTVAAPSVFIFPPSDEQLKSGTASVVCLLNNFYPREAKVQWKVDNALQSGNSQESVTEQDSKDSTYSLSSTLTLSKADYEKHKVYACEVTHQGLSSPVTKSFNRGEC | 1.6 | 28.8 | 0.13 | 2.6 | 4.6 | 3.1 | 0.16 | 1.7 | 5.2 |
| M103205H795-MY325 / M103202L889-SK1 (antibody, human IgG1, kappa, expressed with M103202L889-SK1 as light chain) heavy: QVTLKESGPVLVKPTETLTLTCTVSGIDLSHDDISWVRQAPGKGLEWVGIISYAGSTYYASWAKGRLTISKDTSKNQVVLTMTNMDPVDTATYYCARGVPAYSHGGDLWGQGTLVTVSSASTKGPSVFPLAPSSKSTSGGTAALGCLVKDYFPEPVTVSWNSGALTSGVHTFPAVLQSSGLYSLSSVVTVPSSSLGTQTYICNVNHKPSNTKVDKKVEPKSCDKTHTCPPCPAPELLDGPSVFLFPPKPKDTLMISRTPEVTCVVVDVSDEDPEVKFNWYVDGVEVHNAKTKPREEQYNSTYRVVSVLTVLHQDWLNGKEYKCKVSNKALPKPIEKTISKAKGQPREPQVYTLPPSREEMTKNQVSLTCLVKGFYPSDIAVEWESNGQPENNYKTTPPVLDSDGSFFLYSKLTVDKSRWQQGNVFSCSVMHEALHNHYTQKSLSLSP light: DIVMTQSPATLSLSPGERATLSCTSSQSVYHANWLSWFQQKPGQPPKLLIYWASTLAYGVPSRFSGSGSGTDFTLTISSLQPEDAATYYCAGGYGGGRYAFGQGTKVEIKRTVAAPSVFIFPPSDEQLKSGTASVVCLLNNFYPREAKVQWKVDNALQSGNSQESVTEQDSKDSTYSLSSTLTLSKADYEKHKVYACEVTHQGLSSPVTKSFNRGEC | 1.2 | 17.7 | 0.1 | 1.4 | 2.9 | 1.8 | 0.09 | 0.8 | 3.7 |
| M103205H795-MY327 / M103202L889-SK1 (antibody, human IgG1, kappa, Fc variant made by introducing the substitutions into M103205H795-SG1; the list of substitutions runs over r149c2 and r150c2; Expressed with M103202L889-SK1 as light chain) heavy: QVTLKESGPVLVKPTETLTLTCTVSGIDLSHDDISWVRQAPGKGLEWVGIISYAGSTYYASWAKGRLTISKDTSKNQVVLTMTNMDPVDTATYYCARGVPAYSHGGDLWGQGTLVTVSSASTKGPSVFPLAPSSKSTSGGTAALGCLVKDYFPEPVTVSWNSGALTSGVHTFPAVLQSSGLYSLSSVVTVPSSSLGTQTYICNVNHKPSNTKVDKKVEPKSCDKTHTCPPCPAPELLDGPSVFLFPPKPKDTLMISRTPEVTCVVVDVSEEDPEVKFNWYVDGVEVHNAKTKPREELYNSTYRVVSVLTVLHQDWLNGKEYKCKVSNKALPKPIEKTISKAKGQPREPQVYTLPPSREEMTKNQVSLTCLVKGFYPSDIAVEWESNGQPENNYKTTPPVLDSDGSFFLYSKLTVDKSRWQQGNVFSCSVMHEALHNHYTQKSLSLSP light: DIVMTQSPATLSLSPGERATLSCTSSQSVYHANWLSWFQQKPGQPPKLLIYWASTLAYGVPSRFSGSGSGTDFTLTISSLQPEDAATYYCAGGYGGGRYAFGQGTKVEIKRTVAAPSVFIFPPSDEQLKSGTASVVCLLNNFYPREAKVQWKVDNALQSGNSQESVTEQDSKDSTYSLSSTLTLSKADYEKHKVYACEVTHQGLSSPVTKSFNRGEC | 1.1 | 27 | 0.08 | 2 | 3.2 | 1.8 | 0.08 | 0.9 | 3.3 |
